Experimental data reported in patent US12552850B2, “GLP-1/GIP dual agonist, long-acting conjugate thereof, and pharmaceutical composition comprising same” (HANMI PHARM. CO., LTD., priority 2020, dated 2026).
Square brackets hold non-standard residues; d marks the D form. Ends that are not written are not given here. Aib = CC(C)(N)C(=O)O

Assays:
human GIP receptor = molecular target: T1, human GIP receptor (Homo sapiens, UniProt P48546); assay: In vitro cAMP activity in human GIP receptor-expressing CHO cells (LANCE cAMP kit); assay type: cell-based; details: long-acting conjugates (peptide-PEG-immunoglobulin Fc); relative titer from cAMP EC50, human GIP receptor CHO cells
T1 construct: expressed in transfected cells; host or cells: Chinese hamster ovary (CHO)
T1 sequence (P48546 22-466): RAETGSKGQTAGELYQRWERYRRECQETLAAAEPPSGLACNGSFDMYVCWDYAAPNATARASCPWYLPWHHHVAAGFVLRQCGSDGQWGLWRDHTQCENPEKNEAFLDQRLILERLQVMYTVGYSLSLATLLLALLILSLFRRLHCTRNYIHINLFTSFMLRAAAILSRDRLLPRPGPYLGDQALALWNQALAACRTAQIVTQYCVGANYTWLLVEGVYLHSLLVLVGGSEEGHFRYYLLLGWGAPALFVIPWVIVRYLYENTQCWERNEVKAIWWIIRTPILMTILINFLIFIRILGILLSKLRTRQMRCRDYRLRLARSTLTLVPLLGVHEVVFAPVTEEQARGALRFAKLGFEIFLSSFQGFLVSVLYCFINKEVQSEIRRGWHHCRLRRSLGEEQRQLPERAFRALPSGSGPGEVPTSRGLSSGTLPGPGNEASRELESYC
Protocol: (§1) In order to measure the activity of the GLP-1/GIP dual agonist prepared in Example 1, an in vitro cell activity was measured using cell lines transformed with the GLP-1 receptor and the GIP receptor, respectively. The cell lines are transformed to express human GLP-1 and human GIP receptor genes in Chinese hamster ovary (CHO), respectively, and are suitable for measuring the activities of GLP-1 and GIP. Therefore, the activity for each part was measured using each transformed cell line.
(§2) To measure the GIP activity of the dual agonist prepared in Example 1, human GIP was diluted from 50 nM to 0.000095 nM by 4-fold serial dilution, and the dual agonist prepared in Example 1 was diluted from 50 nM to 0.000048 nM by 4-fold serial dilution. The culture medium was removed from the cultured human GIP receptor-expressing CHO cells, 5 μl of each of the serially diluted materials was added to the cells, and then 5 μl of buffer containing cAMP antibody was added to the cells, followed by 15 minutes of incubation at room temperature. Then, cells were lysed by adding 10 μl of detection mix containing cell lysis buffer, and reacted at room temperature for 90 minutes. The cell lysate after the reaction had been completed, was applied to the LANCE cAMP kit (PerkinElmer, USA) to calculate the EC50 value through the accumulated cAMP, and then compared with each other.
(§3) In order to measure the activity of the long-acting conjugate of SEQ ID NOs: 20, 36, and 40 prepared in Example 3, the cell activity in vitro was measured using cell lines transformed with the GLP-1 receptor and the GIP receptor, respectively, in the same manner as in Example 2.
(§4) The cell lines were transformed to express the human GLP-1 receptor and the human GIP receptor genes in Chinese hamster ovary (CHO), respectively, and were each the same cell line used in Example 2. Activity for each part was measured using each transformed cell line. […]

human GLP-1 receptor = molecular target: T2, human GLP-1 receptor (Homo sapiens, UniProt P43220); assay: In vitro cAMP activity in human GLP-1 receptor-expressing CHO cells (LANCE cAMP kit); assay type: cell-based; details: long-acting conjugates (peptide-PEG-immunoglobulin Fc); relative titer from cAMP EC50, human GLP-1 receptor CHO cells
T2 construct: expressed in transfected cells; host or cells: Chinese hamster ovary (CHO)
T2 sequence (P43220 24-463): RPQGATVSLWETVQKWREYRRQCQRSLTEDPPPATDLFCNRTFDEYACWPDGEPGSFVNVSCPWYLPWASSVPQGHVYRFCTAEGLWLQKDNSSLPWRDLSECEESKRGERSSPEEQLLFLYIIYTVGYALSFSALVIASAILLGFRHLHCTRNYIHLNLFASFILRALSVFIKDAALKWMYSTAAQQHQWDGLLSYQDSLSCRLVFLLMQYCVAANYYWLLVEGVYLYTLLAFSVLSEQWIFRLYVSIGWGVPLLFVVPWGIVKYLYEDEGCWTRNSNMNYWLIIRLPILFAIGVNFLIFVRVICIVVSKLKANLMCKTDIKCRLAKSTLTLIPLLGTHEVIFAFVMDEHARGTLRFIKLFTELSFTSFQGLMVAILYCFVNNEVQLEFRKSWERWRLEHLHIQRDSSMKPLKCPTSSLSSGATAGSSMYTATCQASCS
Protocol: as §1
as §2, with “GLP-1” for “GIP”, “0.000048” for “0.000095”
as §3, §4

Substance	In vitro activity compared to native peptide (%) vs human GIP (human GIP receptor) [%]	In vitro activity compared to native peptide (%) vs human GLP-1 (human GLP-1 receptor) [%]
20 (Y[Aib]EGTFTSDYSI[Aib]LDKQAA[Aib]AFVQWLIAGGPSSGAPPPSC) [compound 20]	62.1	7.5
36 (Y[Aib]EGTFTSDYSI[Aib]LDKQAQQAFVQWLIAGGPSSGAPPPSC) [compound 36]	26.9	3.9
40 (Y[Aib]EGTFTSDYSIALEKQAQRDFVNWLLAGGPSSGAPPPSC) [compound 40]	24.7	10.1
